Laboratory results published in the DeepSol protein solubility set.

Experiment: soluble on expression in E. coli; label from the status in PepcDB or PDB records
With “MGNWLLPEGLADVLPAEARRIEELRRELLDLYRTYGFELVAPPLVEYIDSLLSSTGSDLNLRTCKLVDQLSGRTLGVRADMTSQVTRIDAHLLNRAGVTRLCYCGSVLHARPADLLSSRELLQIGAEIYGHAGFEADLEIIQLVMDTLATAGVRNARLDLCHSGVMRAIFDADPQASRHAGDLCTLLREKDVPGLAELASRVDGLGEDTVRALQALATLYGGPEIIARARRELPAVPGMAQALDALQALVDAMPGVTLSVDLADVGGYGYHSGVTFAVYGEDWHDALVRGGRYDDVSRAFGRARPATGFSLDLRKLAAGLTPAEPARAVRAPWGQDPALTDAVRRLRRSGEIVVQVLPGHEQGLDEFVCDRELALQDGAWTVRTL” the “soluble on expression in E. coli” value was “not soluble”.
With “MGNYFPYAFEDKRYHTWNYHLKNKFGQKIFKVALDGGFDCPNRDGTVAHGGCTFCSAAGSGDFAGNRAEPIEVQFKKIKERMHEKWSEGQYIAYFQAFTNTHAPVEVLKEKYEPVLKEDGVVGLSIATRPDCLPDDVVEYLAELNQRTYLWVELGLQTVHQSTSDLINRAHDMQTYYDGVTKLRKHNINVCTHIINGLPGENYDMMMETAKEVAQMDVQGIKIHLLHLLKGTPMVKQYEKGMLEFMSQQDYTNLVCDQLEVLPPEMIVHRITGDGPIDLMVGPMWSVNKWEVLNEIDNELARRNSYQGKMNKQSIQS” the “soluble on expression in E. coli” value was “not soluble”.
For “MGNYLLRKLSCLGENQKKPKKGNPDEERKRQEMTTFERKLQDQDKKSQEVSSTSNQENENGSGSEEVCYTVINHIPHQRSSLSSNDDGYENIDSLTRKVRQFRERSETEYALLRTSVSRPCSCTHEHDYEVVFPH”, the “soluble on expression in E. coli” value was “soluble”.
In the case of “MGPVFVVGQIDEMVPHPDSDHLNICQVNIGDKKVQIVAGAPNASPGLKTIVALPGAMMPSGALIFPGKLRGEDSYGMMCSPRELALPNAPQKRGIIELDDSAVVGEALEHHHHHH”, the “soluble on expression in E. coli” value is reported as “not soluble”.
In the case of “MGPVPIKLALVIPNYNHSAAISQALSELAALNLPCYLIDDGSNDETRYLLQSLAEQHDWVTLLQHPYNRGKGAAVMTGLRSAYRDGFTHALQVDADGQHNLSDIPAMLAKAQAKPDALISGKPEYDKSVPKGRLYGRYLTHFWVWVETLSFDIQDSMCGFRVYPLAATERLFSKQALTERMDFDIEILVKLYWQGVEILFHPTKVIYPENGVSHFQCVADNVRISKLHTRLFFGMLKRLPQLLRRKQAAKSTSSAHTATHWSAMKERGSYWGIKLLVESYRFGGHWLCRAIMYPVICYFFLTGKVSREASRDFLRRVQHLEPQHPQLNQPVGWRDSLNHFIAFGNAALDRIDAWCDRIQLSQVDFPDRQVLADQLESGKGAVLLVSHLGNLELCRAISIHQRKVKVNVMVLTSHAENFNNVLKQLNPNSSLNLIQVTELNPATSMLLQQKIEDGELVVIAGDRTSSHAQGRVVYAPFMGQDAAFPQGPFILAGLLDCPVYLMFCLREQGRYRVHLERFAETLKGPRAGRMERLQQAVYRYSERLEHYARREPLQWFNFFDFWRDDNQVNRATSAHKTTAALPEQERTTDRTEHLLEHHHHHH”, the “soluble on expression in E. coli” value is reported as “soluble”.
For “MGQGQSVILSFEDGARTVELARESVEAFVQNGQREQPGSMRDAFYNRTSAFVRLESTRGRGRLRGCAGAHGSIHELGNHDQQLGHAIVEAAIEAASEASCGSEVEDAELPNIRVSVCTVSNLVLTDDPIEDIELGVHGVAIDGDGQHGWMYPTLPVENDWSVFEYLDRTCRKANLPDGAWQDEDVMVTLFEGQVFRETGDEDDPVEELTALEHHHHHH”, the “soluble on expression in E. coli” value was “not soluble”.
In the case of “MGQRQAKQHMQAGVKLYHQRHYAQAINKWRQSLNRLNNAEDRFITLGYLAQALCDQGEYEGMLSYALSQMQLATDQNDSAMKCEAFLNLAKAYERLADFTKALQYGKASLEHPSMDPRTPGYAHLTIALAHLGMSQFQQCLESFESAMNVANETSDRLLELQICVGLGSLFTLLRDITKALIFLRNALAIVQSVTVDDVHAKYRCLILYHLSVALRMKGSLVDAKEACDEASQLAVEMGNRAIHARCMCSLADIYRELGESEAKETITKSWARYEDAYRVMRGANDKMGEVLVLSSMAKSASESRSHYTGQCECQAIQLNKKCIEIANQIGCKHVVLKCHLRLAELYSQLNDDDSEETARRAASRLTQEMQLFCNFCGQRYGLKDESLQALRCSHIFHEKCLHTYLLQRTDQTCPKCRCRAVLSDNISIRSSIASTIDVQSPSTSFAPPGGVATPLVSAAAELGDITPQATLTRRSQQDKILRGAEKDIDRVDRSLARLKSQQSAAANACSAVAVPSPEVPSTTASCASEPILTASTTSQSHTHSNANHKPPPPPRKPCCSQAALPPSSIVALPPAMPLAEDGPLVITHTPTVTDV”, the “soluble on expression in E. coli” value is reported as “not soluble”.
With “MGRFQTLDYEIPESMQRSWQDIVNLLAQIADVPTTLIMRVHQNHIEVNTSSDTQGNPYKAGDKEDLGHGLYCEHVIETKSQLVVPDALADEKWSNNPDIKLGMLSYCGLPLFWPNGETFGTICMLDSKANEYSETYRQLLNTFKDSIEAQLAVVYQQYKLLR” the “soluble on expression in E. coli” value was “not soluble”.
In the case of “MGRIFLDHIGGTRLFSCANCDTILTNRSELISTRFTGATGRAFLFNKVVNLQYSEVQDRVMLTGRHMVRDVSCKNCNSKLGWIYEFATEDSQRYKEGRVILERALVRESEGFEEHVPSDNS”, the “soluble on expression in E. coli” value is reported as “soluble”.
For “MGRKSKNSSQSHAHGPVPGVYPTTTGEVELRADSFLPHAFEVYVNGVPSSHIAQDPEQLEYEYMRWIAAIVDWFVTTHSDPKKLRVTHLGGGACTLARYVCHRYPNARNTVVELDATLATLVREWFDLPRSPQLKIRVGDAWEVAQTFVPSSRDVIIRDVFAGNQTPRRLTTVEFFQQCHQALSPGGLYVANCGDHRDLNVAKAEVQGLREVFDHVACIADPTMLKGRRYGNIILIATDTQLPTDQEQQVLTRLLLGGGVPAQFKGGNWTKNFSSSSTARHD”, the “soluble on expression in E. coli” value was “not soluble”.
For “MGRQAFEFGLRPKDQFKVMQHFDLNTNHLEVLNRLYTPLIGTQAVGLYHFMTQFVKDSHNETLILSHYIFMNELKINLLEFRQQMDLLEAIGLLKAFVKHDEQETQFVYQLIQPPSAHLFFNDPMLSIFLYSEVEHRRFHELKKYFEYQQIDLSEFKQVTRQFTDVFKVPSTKIDIDTSDIPINEPYQGIDLSNESFDFEMLRQMLGKHFISQDIVTKDAKRLITQLATLYGLTADGMKHVILNSITSGQQLSFEEMRKQARSYYLMEHENQMPKLQVKSPATSSSTGKSSEVNPKPQSDEWFELLEQTSPIDMLASWSESEPTISQKTMVEELIEREKMSFGVINILLQFVMLKEDMKLPKAYILEIASNWKKKGIKTAKEAYNYAKKVNQPKNEGSSGNYQKRGSYYGQRNRISKEKTPKWLENRDKPSEEDSAKDNSVDDQQLEQDRQAFLDKLSKKWEEDSR”, the “soluble on expression in E. coli” value was “not soluble”.
For “MGSANGKTLGEVWKRELNLLDKRQFELYKRTDIVEVDRDTARRHLAEGKVDTGVAVSRGTAKLRWFHERGYVKLEGRVIDLGCGRGGWCYYAAAQKEVSGVKGFTLGRDGHEKPMNVQSLGWNIITFKDKTDIHRLEPVKCDTLLCDIGESSSSSVTEGERTVRVLDTVEKWLACGVDNFCVKVLAPYMPDVLEKLELLQRRFGGTVIRNPLSRNSTHEMYYVSGARSNVTFTVNQTSRLLMRRMRRPTGKVTLEADVILPIGTRSVGSSSHHHHHH”, the “soluble on expression in E. coli” value was “soluble”.
In the case of “MGSDKIHHHHHHAALYARWAPTHSAAPAAEQQRKVLFWYDPMYPNTRFDKPGKSPFMDMDLVPKYADEEHAAAGAPGVRIDPTQTQNLGVKTAAVTRGPLRYAQTFPANISYNEYQYVIMQARAAGFINKVYPLTVGDKVKQGTPLLELTIPDWVEAQSEYLLLQETGGTATQVEGILERLRLAGMPDDDIRRLKATRKIQTRFTLTAPIDGVITAFDLRAGMNIAKDNVVAKIQGMDPVWVSVAVPESIAWLIKDASQFSIQVPAWPGKTFRISKWTLLPSVDSATRTLQLRLQVNNPDEALKPGMNAYLQLTSESAPMLLIPSKALIDSGSEQRVITVDNEGRFVPKRVQVFHESAGVTAIRSGLQEGEKVVARGLFLIDSEANIAGALERMRAQAPDAAASAAHAH”, the “soluble on expression in E. coli” value is reported as “not soluble”.
In the case of “MGSDKIHHHHHHADGNDPVENSVSTYLLEKTYGARSVTYEENNSDKLKLSELPAISLSEADHILSVLRKHTDAQEELDIQTATKGEQTWLRIVMKQTIDHKYAFTIQLNMNCYNDGSLYYGGYQAECSSSLIKWYLKGFSLATDNATKNYKFESQSYIYMKVIDNGIKYMQIPVTINGNYNPQNHDAAFSYNL”, the “soluble on expression in E. coli” value is reported as “not soluble”.
In the case of “MGSDKIHHHHHHAEVAVPDTTPKDTASAVKITYEDPRDPFEGFNRVMWDFNYLYLDRYLYRPVAHGYNDYIPLPAKMGVNNFLQNLEEPSSVVNNLLQGKWGWAANAGGRFTVNTTIGLLGVIDVADMMGMTRKQDEFNEVLGYYGVPNGPYFMAPFAGPYIVRELASDWVDGLYFPLSELTMWQSVLKWGLKSLHARASAIDQERLVDNALDPYAFVKDAYIQHMDYKVYDGNVPQKQEDDELLDQYMQELE”, the “soluble on expression in E. coli” value is reported as “not soluble”.
In the case of “MGSDKIHHHHHHAEVPVSDTIQQEAPAKVQITYDDPRDPFEGFNRAMWDFNYLYLDRYLYRPVAHGYNDYIPMPAKTGINNFVQNLEEPSSLVNNVLQGKWGWAANAGGRFTINSTVGLLGVIDVADMMGMSRKQDEFNEVLGYYGVPNGPYFMAPFAGPYVVRELASDWVDGLYFPLSELTMWQTIVKWGLKNLHSRASAIDQERLVDNALDPYAFVKDAYLQHMDYKVYDGNVPQKQDDDELLDQYMQELE”, the “soluble on expression in E. coli” value is reported as “not soluble”.
For “MGSDKIHHHHHHAGCEEEASLSARSVVEAGETEREKTELDKWILDTFTRPYGIEVEYRWDKNAVQNGSYIYPPEVANVKSVLNTIKTLWIDLYTAPELGGDKFLLGKNPLKIYMYGGRNVDGNGMELLDNLEATTNEMFLYNVNDFNPQDEDKVFILMRSVHHQFARHLMELFPYDRSKFLSISRNKYIESTKSIAWIFKGETQGRRGFILAGYPNKKGFFTFHSLLSPEKDFAEIISLKLTYGPKDLLQALDRAKTPYNAGSDKDLQKEYDEQALQAYKELVEKQAFVEDYFSKEIKISLNYLQLISMKQVKEFINKK”, the “soluble on expression in E. coli” value was “not soluble”.
With “MGSDKIHHHHHHAGCKTSKVVKTTPVEPAYLSSKLQLTVPNKNGSMTVSGSMKMKSGERIQLSVLMPVFRSEVMRMEVTPDEVLLIDRMNKRYVRATRDELKGILPENADFDRLEKLLFKASLPGEKKELTGRELGIPSLEKAKVRLSDFSTAEFELIPTEVSSRYTQVALEDLLKMLMKL” the “soluble on expression in E. coli” value was “not soluble”.
In the case of “MGSDKIHHHHHHAKSEMAFAGKGEISPRAITMWDFSWLERRWPGAGYEDWDQVLDELSERGYNAIRIDAYPHLIAENPMKKWLLKEVWNQQDWGSPDMNEVQVQPNLNLFLSKCKERDIKVGLSSWYRLDVDEVCLKLDTPEKLADCWLTILRSIEEDGLLDTILYVDLCNEWPGDSWAPFFAKTYPNVGWGNWYKEESLRWMKTSLEKMRQVYPDMPFLYSFDHGDVKKYEEVDCSFLDLYEHHIWMAQQNGGEFYKLVGYGYNRFLPDDYKNVVKNAERVYRERPGYWQKLLTDKIELMASVARKNRRPLVTTECWGLVDYKDWPLLKWDWVKDLCELGTITAARTGMWVGVATSNFCGPQFAGMWRDVEWHKRLTSIIRSSPLDESLTKNNEVAAKLLKRL”, the “soluble on expression in E. coli” value is reported as “not soluble”.
In the case of “MGSDKIHHHHHHAQFKKFNLGKAIQAGKDAAQAISLSDADIAAMSKEYMEWMDKHNPLTKPDSEYGKRLERLTGNIKEVDGMKVNFGVYEVVDVNAFACGDGSVRICAGLMDVMTDEEVMAVIGHEIGHVIHTDSKDAMKNAYFRSAVKNAAGAASSQVAKLTDSELGAMAEALAGAQYSQKQEYEADAYGVEFCVKNNIDPYGMYKSLNKLLELSNGAPASSYMQRMFSSHPDTAKRVARAKELADKYKQ”, the “soluble on expression in E. coli” value is reported as “not soluble”.
